Data: the nanobody polyreactivity screen of Harvey et al. (2022)

assay: yeast display, Sf9 membrane polyspecificity reagent, FACS + sequencing; frameworks hold sequencing errors
In short: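 After 36–48 hours of galactose induction, yeast (Saccharomyces cerevisiae BJ5465) displaying a synthetic nanobody library were stained at 4 °C for 1 hour with 10% biotinylated, detergent-solubilized Sf9 membrane reagent. Streptavidin microbeads enriched the stained cells before FACS sorting into low and high (top ~1%) gates on anti-HA and streptavidin fluorescence. Each clone's polyreactivity label reflects its gate of origin.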

Sequence	polyreactivity (PSR sort gate)
QVQLVESGGGLVQAGGSLRLSCGASGRTFKLYAMGWYRQAPAKERELVATIRRSGTRTYADSVKGRFTISRDNAKNTVYLQINSLKQEDTAVYYCAATTYAYVYHRYDYWGQGTQVTVSS	high polyreactivity
QDQLVESGGGLVQAGGSLCLSCAASGITFRFYAMGWNRQAPGKERELVAAISWSGGRTYYADSVKGRFTISRDNAKNTVYLQMNSLKPEDTAVYYCAAEASSVPGYDYWGEGTQVTVSS	low polyreactivity
QVQLVESGGGLVQAGGSLRLSCAASGSTFRFYAMGWYRQAPGKERELVATISSSGGTTYYADSVKGRFTISRDNAKNTVYLQMNSLKPEDTAVYYCAKDAFGWGRVYYYRSGYWGQGTQVTVSS	high polyreactivity
QVQLVESGGGLVQAGGSLRLSCAASGFIFYNYAMGLYRQAPGKERELVAAISASGGRTYYADSVKGRFTISRDNAKNTVYLQMNRLKPEDTAVYYCNARVNYKGYDYWGQGTQVTVSS	high polyreactivity
QVQLVESGGGLVQAGGSLRLSCAASGGIGSYAMGWYRQAPGKERELVAVITAGGDSTYYADSVKGRFTISRDNAKNTVYLQMNSLKPEDTAVYYCNTVYRSKRYQYDYWGQGTQVTVSS	high polyreactivity
QVQLVESGGGLVQAGGSLRLSCAASGSIFIVYAMGWYRQAPGKERELVAAISYRGGSTYADSVKGRFTISRDNAKNTVYLQMNSLKPEDTAVYYCAADDLSYVGYYYGYVDDDYWGQGTQVTVSS	high polyreactivity
QVQLVESGGGLVQAGGSLRLSCAASGRTFVKNAMGWYRQAPGKERELVAAIDRGSRTNYADSVKGRFTISRDNAKNTVYLQMNSLKPEDTAVYYCATRYRVRDDQTGTWSIFGYWGQGTQVTVSS	high polyreactivity
QVQLVESGGGLVQAGGSLRLSCAASGRTLYINAMGWYRQAPGKERELVAAIRRGGSTYADSVKGRFTISRDNAKNTVYLQMNSLKPEDTAVYYCAADVPRGKYKGDYWGQGTQVTVSS	high polyreactivity
QVQLVESGGGLVQAGGSLRLSCAACGSLFGYNAMGWYRQAPGKERELVAAISYSGGSTYYADSVKGRFTISRDNAKNTDFLQMNSLKPEETAVYYCNAYRRYKDEDYWGQGTQVTVSS	high polyreactivity
QVQLVESGGGLVQAGGSLRLSCAASGRTFFIYAMGWYRQAPGKERELVAAISNGGSTNYADSVKGRFTISRDNAKNPVYLQLNSLKPEDTAVYYCAAQYIGNLRGVFHYEFDWGQGTQVSVSS	high polyreactivity
QVQLVESGGGLVQAGGSLRLSCAASGSTFLSYVMGWYRQAPGKERELVAAISGITGSTYYADSVKGRFTLSRDNAKNTVYLQMNSLKPQDTAVYYWAKVYGYNRLFYYRYDYWGQGTQVTVSS	high polyreactivity
QVQLVESGGGLVQAGGSLRLSCAASGSIFPAYAMGWYRQAPGKERELVAAITDRGGYTYYADSVKGRFTISRDNAKNTVYLQMNSLKPEDT	low polyreactivity
QVQLVESGGGLVQAGGSLRLSCAASGIIFQRNAMGWYRQAPGQERELVAAISSGGRTYYADSVKGRFTISRDNAKNTVYLQMNSLKPEDTAVYYCNAASYSRGRARYDYWGQGTQVTVSS	high polyreactivity
QVQLVESGGGLVQAGGSLRLSCAASGRIFVQYAMGWNRQAPGKERELVAAISGSGGRTYYADSVKWRFTISRDNAKNTVYLQMNSLKTEDTAVFYCAARSSTGVSFWKPYYYWGQGTQVTLSS	high polyreactivity
QVQHVDSGGGLVQAGGSLRLSCAASGSTFQLYAMGRDRQAPGKERELVASISWSGGSTYYADSVKGRFTISRDNAKNTVYLQMNSLKPEDTAVYSCNDDFWWRYRPGAVFPSYGYWGQGTQVTVSS	low polyreactivity
QVQLVESGGGLVQAGGSLRLSCAASGRIFPYYAMGWYRQAPGKERELVAGISYSGTSTYYADSVKGRFTISRDNAKNTVYLQMNSLKPEDTAVYYCATTSWRYGYDYWGQGTQVTVSS	high polyreactivity

Sequence	polyreactivity (PSR sort gate)
QVQLVESGGGLVQAGGSLRLSCAASGRTFEDNAMGWYRQAPGKERELVAAISSDGSTNYADSVKGRFTISRDNAKNTVYLQMNSLKPEDTAVYYCNATVYWPYDWRTSDYWGQGTQVTVSS	low polyreactivity
QVQLVESGGGLVQAGGSLRLSCAASGRIIAYNTMGWNRQAHWKERDWVAAISSRGGRTYYADSVKGRFTISRDNAKNTVYLEMNSLKPEDTAVYYCAAKYYRYGDPDRYDYWGQGTQVTVSS	high polyreactivity
QVQLVESSGGLVQAGGSLRLSCAASGITFYYYAMGWYRQAPGKERELVAVITGNGGRTYYADSVKGRFTISRDNAKNTVYLQMNSLKPEDTAVYYCAALYDGIYDSWGQGTQVTVSS	high polyreactivity
QVQLVESGGRLVQAGGSLRLSCAASGISFNYYAMGWYRQAPGKEREMVAGITSGGSTYYADSVKGRFTISRDNAKNTVYLQMNSLKTEDTAVYYCATRVRDGSQTPYRRGHSYDYWGQGTQVTVSS	high polyreactivity
QVQLVESGGGLVQAGGSLRLSCAASGRTFKPYAMGWYRQAPGKERELVAAIRSAGTTNYADSVKGRFTISRDNAKNTVYLQMNSLKPEDTAVYYCNAGTYLRRYYGFDYWGQGTQVTVSS	high polyreactivity
QVQLVESGGGLVQAGGSLRLSCAASGRIFKYYAMGWFRQAPGKERELVAAISSGSSTNYADSVKGRFTISRDTAKNTVYLQMNSLKPEDTAVYYCAAKYYRSKFDFWGQGTQVTVSS	high polyreactivity
QVQLVESGGGLVQAGGSLSLRCASYGSISFINAMGWYRQAPGKEMELVARITWSGGTTYYADSVKGRFTISRDNAKNTVYLQMNSLKPEDTAVYYCAAYIWAPLEGYEYDYWGQGTQVTVSS	high polyreactivity
QVQLVESGGGLVQAGGSLRLSCAASGSNFTPNTMGWYRQAPAKERELVAGISSGDSTDYADSVKVRFTISRDNAKNTVYLQLNSLNPEDPAVYYCAAPWYGYYSRYDFYYWGQGTQVTVSS	low polyreactivity
QVQLVESGGGLVQAGGSLRLSCAASGSIFVPNAMGWYRQAPGKERELVAAISGIGGSTSYADSVKGRFTISRDNAKNTVYLQMNSLKPEDTAVYYCARADKLHTRGWGRWGSGSYSWGQGTQVTVSS	low polyreactivity
QVQLVESGGGLVQAGGSLRLSCAASGGTFLYYAMGWYRQAPGKETELVAAISRGGSTHYADSVKGRFTISRDNAKNTVYLQMNSLKPEDTAVYYCAVDGGEFSSYGYWGQGTQVTVSS	low polyreactivity
QVQLVESGGGLVQAGGSLRLSCAASGFTLPANGMGWYRQAPGKERQLVAAISFIAGSTYYADSVKGRFTISRDNAKNTVYLQMKSLKPEDTAVYYCATQFPPSTFYDYWGQGTQVTVSS	low polyreactivity
QVQLVESGGGLVQAGGSLRLSCAASGNIFIYNAMGWNRQAPGKERELVAAISVSGGDTYYADSVKGRFTISRDNAKYTVYLQLNSLKPEDTAVYYCAAEAEYIELDYWGQGTQVTVSS	low polyreactivity
QVQLVESGGGLVQAGGSLRLSCAASGGIFPLNAMGWYRQAPGKERELVAAISRRGGSTYYADSVKGRFTISRDNAKNTVYLQMNSLKPEDTAVYYCAAVTVRKFYKGINYWYEYWGQGTQVTVSS	high polyreactivity
QVQLVESGGGLVQAGGSLRLSCAASGITFDHYVMGWYRQAPGKERELVAAISRRGGSTYYADSVKGRFTISRDNAKNTVYLQMNSLKPEDTAVYYCAADSSKHIGYDSWGQGTQVTVSS	high polyreactivity
QVQLVESGGGVVQAGGSLRLSCAATGRTFWRYAMGGYIQAPGKERELVASISVSGGTTYYAYSVKGRFTISRDHAKNTVYLQMNSLKPEDTAVYYCAARYGSIYSILYYRFVYWGQGTQVTVSS	high polyreactivity
QVQLVESGGGLVQAGGSLRLSCAASGSTFQSNARGWYRQAPGKERELVASITSSGVSTYYADSVKGRFTISRDNAKNTVYLQMNSLKPEDTAVYYCAASSYDAYDYGFRFDYWGQGTQVTVSS	low polyreactivity
